Biological target: FITC-casein (UniProt P02662)
Test: fluorescence polarisation

Sequence of UniProt P02662 (P02662 16-214): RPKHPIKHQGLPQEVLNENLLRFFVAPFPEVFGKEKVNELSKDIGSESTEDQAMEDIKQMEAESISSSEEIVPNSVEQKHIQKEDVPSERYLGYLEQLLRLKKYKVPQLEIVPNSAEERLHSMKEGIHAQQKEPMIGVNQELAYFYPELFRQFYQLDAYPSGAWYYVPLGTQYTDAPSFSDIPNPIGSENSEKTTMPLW

Kd | Substance
65 nM | Hsp104^WT (from UniProt P31539 1-908) (natural protein)
80 nM | Hsp104^A503V (from UniProt P31539 1-908) (natural protein)

Reference: publication PMC3909490
